Laboratory results as given in US20260242735A1 (UNIVERSIT T BASEL, published 2026).

Key:
Assay in all cases: flow cytometry, mutant on cells, IgG
human CD33 P19K = human CD33 P19K (human, UniProt P20138 18-364)
Protocol: (§1) An alanine scan on human CD33 was performed to the determine the residues on CD33 that are involved in binding to the antibodies investigated. […] Briefly, a mutation library of CD33 was created by high-throughput, site-directed mutagenesis. Each residue was individually mutated to alanine, with alanine codons mutated to serine. The mutant library was arrayed in 384-well microplates and transiently transfected into HEK293-T. Following transfection, cells were incubated with the indicated antibodies (IgG or Fab) at concentrations pre-determined using an independent immunofluorescence titration curve on wild type CD33. […] Binding of each antibody to each mutant clone was determined in duplicates. For each point, background fluorescence was subtracted from the raw data, which were then normalized to antibody reactivity with wild type CD33.
(§2) Antibodies were screened for binding to the human CD33 variants in IgG format. […] For each mutation, background fluorescence was subtracted from the raw data, which were then normalized to antibody reactivity with wild-type CD33.

human CD33 P19W = human CD33 P19W (human, UniProt P20138 18-364)
Protocol: as §1, §2

human CD33 N20G = human CD33 N20G (human, UniProt P20138 18-364)
Protocol: as §1, §2

human CD33 N20S = human CD33 N20S (human, UniProt P20138 18-364)
Protocol: as §1, §2

human CD33 N20T = human CD33 N20T (human, UniProt P20138 18-364)
Protocol: as §1, §2

human CD33 N20L = human CD33 N20L (human, UniProt P20138 18-364)
Protocol: as §1, §2

human CD33 N20Y = human CD33 N20Y (human, UniProt P20138 18-364)
Protocol: as §1, §2

human CD33 N20D = human CD33 N20D (human, UniProt P20138 18-364)
Protocol: as §1, §2

human CD33 F21V = human CD33 F21V (human, UniProt P20138 18-364)
Protocol: as §1, §2

human CD33 F21L = human CD33 F21L (human, UniProt P20138 18-364)
Protocol: as §1, §2

human CD33 F21I = human CD33 F21I (human, UniProt P20138 18-364)
Protocol: as §1, §2

human CD33 F21H = human CD33 F21H (human, UniProt P20138 18-364)
Protocol: as §1, §2

human CD33 W22G = human CD33 W22G (human, UniProt P20138 18-364)
Protocol: as §1, §2

human CD33 W22S = human CD33 W22S (human, UniProt P20138 18-364)
Protocol: as §1, §2

human CD33 W22N = human CD33 W22N (human, UniProt P20138 18-364)
Protocol: as §1, §2

human CD33 W22E = human CD33 W22E (human, UniProt P20138 18-364)
Protocol: as §1, §2

human CD33 W22R = human CD33 W22R (human, UniProt P20138 18-364)
Protocol: as §1, §2

human CD33 L23M = human CD33 L23M (human, UniProt P20138 18-364)
Protocol: as §1, §2

human CD33 Q24S = human CD33 Q24S (human, UniProt P20138 18-364)
Protocol: as §1, §2

human CD33 Q24L = human CD33 Q24L (human, UniProt P20138 18-364)
Protocol: as §1, §2

human CD33 Q24N = human CD33 Q24N (human, UniProt P20138 18-364)
Protocol: as §1, §2

human CD33 Q24H = human CD33 Q24H (human, UniProt P20138 18-364)
Protocol: as §1, §2

human CD33 Q24E = human CD33 Q24E (human, UniProt P20138 18-364)
Protocol: as §1, §2

human CD33 Q24R = human CD33 Q24R (human, UniProt P20138 18-364)
Protocol: as §1, §2

human CD33 V25S = human CD33 V25S (human, UniProt P20138 18-364)
Protocol: as §1, §2

human CD33 T42K = human CD33 T42K (human, UniProt P20138 18-364)
Protocol: as §1, §2

human CD33 F44P = human CD33 F44P (human, UniProt P20138 18-364)
Protocol: as §1, §2

human CD33 F44Q = human CD33 F44Q (human, UniProt P20138 18-364)
Protocol: as §1, §2

human CD33 F44H = human CD33 F44H (human, UniProt P20138 18-364)
Protocol: as §1, §2

human CD33 F44E = human CD33 F44E (human, UniProt P20138 18-364)
Protocol: as §1, §2

human CD33 F44T = human CD33 F44T (human, UniProt P20138 18-364)
Protocol: as §1, §2

human CD33 D18N = human CD33 D18N (human, UniProt P20138 19-364)
Protocol: as §1, §2

human CD33 P46I = human CD33 P46I (human, UniProt P20138 18-364)
Protocol: as §1, §2

human CD33 P46F = human CD33 P46F (human, UniProt P20138 18-364)
Protocol: as §1, §2

human CD33 P46D = human CD33 P46D (human, UniProt P20138 18-364)
Protocol: as §1, §2

human CD33 I47G = human CD33 I47G (human, UniProt P20138 18-364)
Protocol: as §1, §2

human CD33 I47T = human CD33 I47T (human, UniProt P20138 18-364)
Sequence of human CD33 I47T (P20138 18-364 I47T limits assumed): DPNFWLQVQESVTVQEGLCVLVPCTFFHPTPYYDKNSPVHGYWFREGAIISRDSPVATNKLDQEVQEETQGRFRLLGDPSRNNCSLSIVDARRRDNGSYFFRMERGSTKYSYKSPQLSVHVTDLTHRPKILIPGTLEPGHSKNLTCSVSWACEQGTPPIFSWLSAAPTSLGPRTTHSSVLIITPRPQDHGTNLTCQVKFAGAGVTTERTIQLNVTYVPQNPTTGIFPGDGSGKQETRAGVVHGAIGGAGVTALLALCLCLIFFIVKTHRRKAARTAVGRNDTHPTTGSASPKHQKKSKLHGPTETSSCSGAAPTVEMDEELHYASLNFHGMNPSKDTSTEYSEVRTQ
Protocol: as §1, §2

Sequence of human CD33 P46D (P20138 18-364 P46D limits assumed): as the sequence (P20138 18-364 I47T limits assumed) above, with P29D, T30I counted along it
Sequence of human CD33 W22G (P20138 18-364 W22G limits assumed): as the sequence (P20138 18-364 I47T limits assumed) above, with W5G, T30I counted along it
Sequence of human CD33 L23M (P20138 18-364 L23M limits assumed): as the sequence (P20138 18-364 I47T limits assumed) above, with L6M, T30I counted along it
Sequence of human CD33 F44P (P20138 18-364 F44P limits assumed): as the sequence (P20138 18-364 I47T limits assumed) above, with F27P, T30I counted along it
Sequence of human CD33 Q24N (P20138 18-364 Q24N limits assumed): as the sequence (P20138 18-364 I47T limits assumed) above, with Q7N, T30I counted along it
Sequence of human CD33 P19W (P20138 18-364 P19W limits assumed): as the sequence (P20138 18-364 I47T limits assumed) above, with P2W, T30I counted along it
Sequence of human CD33 P19K (P20138 18-364 P19K limits assumed): as the sequence (P20138 18-364 I47T limits assumed) above, with P2K, T30I counted along it
Sequence of human CD33 F21V (P20138 18-364 F21V limits assumed): as the sequence (P20138 18-364 I47T limits assumed) above, with F4V, T30I counted along it
Sequence of human CD33 Q24S (P20138 18-364 Q24S limits assumed): as the sequence (P20138 18-364 I47T limits assumed) above, with Q7S, T30I counted along it
Sequence of human CD33 N20L (P20138 18-364 N20L limits assumed): as the sequence (P20138 18-364 I47T limits assumed) above, with N3L, T30I counted along it
Sequence of human CD33 W22N (P20138 18-364 W22N limits assumed): as the sequence (P20138 18-364 I47T limits assumed) above, with W5N, T30I counted along it
Sequence of human CD33 W22S (P20138 18-364 W22S limits assumed): as the sequence (P20138 18-364 I47T limits assumed) above, with W5S, T30I counted along it
Sequence of human CD33 F44H (P20138 18-364 F44H limits assumed): as the sequence (P20138 18-364 I47T limits assumed) above, with F27H, T30I counted along it

Mean % WT Binding (human CD33 P19K) [% WT binding] | Mean % WT Binding (human CD33 P19W) [% WT binding] | Mean % WT Binding (human CD33 N20G) [% WT binding] | Mean % WT Binding (human CD33 N20S) [% WT binding] | Mean % WT Binding (human CD33 N20T) [% WT binding] | Mean % WT Binding (human CD33 N20L) [% WT binding] | Mean % WT Binding (human CD33 N20Y) [% WT binding] | Mean % WT Binding (human CD33 N20D) [% WT binding] | Mean % WT Binding (human CD33 F21V) [% WT binding] | Mean % WT Binding (human CD33 F21L) [% WT binding] | Mean % WT Binding (human CD33 F21I) [% WT binding] | Mean % WT Binding (human CD33 F21H) [% WT binding] | Mean % WT Binding (human CD33 W22G) [% WT binding] | Mean % WT Binding (human CD33 W22S) [% WT binding] | Mean % WT Binding (human CD33 W22N) [% WT binding] | Mean % WT Binding (human CD33 W22E) [% WT binding] | Mean % WT Binding (human CD33 W22R) [% WT binding] | Mean % WT Binding (human CD33 L23M) [% WT binding] | Mean % WT Binding (human CD33 Q24S) [% WT binding] | Mean % WT Binding (human CD33 Q24L) [% WT binding] | Binder | also measured
92 | 82.8 | 103 | 91.7 | 92.1 | 89.8 | 25.7 | 91.3 | 118 | 114 | 96.3 | 123 | 105 | 103 | 100 | 99.4 | 114 | 92.7 | 96.8 | 97 | Refmab #4 (antibody, human IgG1, V domains shown, Tested in IgG format; human IgG1 Fc silent (PG-LALA)) VH: QVQLVQSGAEVKKPGESVKVSCKASGYTFTNYGMNWVKQAPGQGLEWMGWINTYTGEPTYADKFQGRVTMTTDTSTSTAYMEIRNLGGDDTAVYYCARWSWSDGYYVYFDYWGQGTSVTVSS VL: DIVMTQSPDSLTVSLGERTTINCKSSQSVLDSSTNKNSLAWYQQKPGQPPKLLLSWASTRESGIPDRFSGSGSGTDFTLTIDSPQPEDSATYYCQQSAHFPITFGQGTRLEIK | Mean % WT Binding (human CD33 Q24N): 107 % WT binding; Mean % WT Binding (human CD33 Q24H): 93.2 % WT binding; Mean % WT Binding (human CD33 Q24E): 69.7 % WT binding; Mean % WT Binding (human CD33 Q24R): 98.6 % WT binding; Mean % WT Binding (human CD33 V25S): 106 % WT binding; Mean % WT Binding (human CD33 T42K): 86 % WT binding; Mean % WT Binding (human CD33 F44P): 104 % WT binding; Mean % WT Binding (human CD33 F44Q): 102 % WT binding; Mean % WT Binding (human CD33 F44H): 84.9 % WT binding; Mean % WT Binding (human CD33 F44E): 112 % WT binding; Mean % WT Binding (human CD33 F44T): 97.1 % WT binding; Mean % WT Binding (human CD33 D18N): 76 % WT binding; Mean % WT Binding (human CD33 P46I): 91 % WT binding; Mean % WT Binding (human CD33 P46F): 42.4 % WT binding; Mean % WT Binding (human CD33 P46D): 110 % WT binding; Mean % WT Binding (human CD33 I47G): 72.5 % WT binding; Mean % WT Binding (human CD33 I47T): 82.4 % WT binding
5.5 | 73.8 | 5.1 | 45.5 | 6.9 | 78.5 | 0.4 | 0.7 | 1.5 | 4.7 | 1.9 | 20.6 | 89.6 | 74.3 | 76.5 | 5 | 7.4 | 94.4 | 60.2 | 80.9 | Refmab #1 (antibody, human IgG1, V domains shown, Tested in IgG format; human IgG1 (Absolute Antibody hP67.6, Cat. No. Ab00283-10.0); also called hP67.6) VH: EVQLVQSGAEVKKPGSSVKVSCKASGYTITDSNIHWVRQAPGQSLEWIGYIYPYNGGTDYNQKFKNRATLTVDNPTNTAYMELSSLRSEDTAFYYCVNGNPWLAYWGQGTLVTVSS VL: DIQLTQSPSTLSASVGDRVTITCRASESLDNYGIRFLTWFQQKPGKAPKLLMYAASNQGSGVPSRFSGSGSGTEFTLTISSLQPDDFATYYCQQTKEVPWSFGQGTKVEVK | Mean % WT Binding (human CD33 Q24N): 86.5 % WT binding; Mean % WT Binding (human CD33 Q24H): 95.3 % WT binding; Mean % WT Binding (human CD33 Q24E): 17.1 % WT binding; Mean % WT Binding (human CD33 Q24R): 95.1 % WT binding; Mean % WT Binding (human CD33 V25S): 106 % WT binding; Mean % WT Binding (human CD33 T42K): 106 % WT binding; Mean % WT Binding (human CD33 F44P): 37.1 % WT binding; Mean % WT Binding (human CD33 F44Q): 106 % WT binding; Mean % WT Binding (human CD33 F44H): 97.6 % WT binding; Mean % WT Binding (human CD33 F44E): 92.7 % WT binding; Mean % WT Binding (human CD33 F44T): 107 % WT binding; Mean % WT Binding (human CD33 D18N): 69.6 % WT binding; Mean % WT Binding (human CD33 P46I): 38.2 % WT binding; Mean % WT Binding (human CD33 P46F): 1 % WT binding; Mean % WT Binding (human CD33 P46D): 0.6 % WT binding; Mean % WT Binding (human CD33 I47G): 105 % WT binding; Mean % WT Binding (human CD33 I47T): 97.2 % WT binding
1.8 | 71.2 | 3.6 | 4.6 | 2.2 | 9.4 | 0.6 | 4.6 | 0.7 | 1 | 0.5 | 1.4 | 9 | 1.4 | 3.5 | 1.4 | 0.9 | 98.1 | 5.3 | 11.8 | Refmab #3 (antibody, human IgG1, V domains shown, Tested in IgG format; human IgG1 Fc silent (PG-LALA)) VH: QVQLVQSGAEVKKPGSSVKVSCKASGYTFTDYNMHWVRQAPGQGLEWIGYIYPYNGGTGYNQKFKSKATITADESTNTAYMELSSLRSEDTAVYYCARGRPAMDYWGQGTLVTVSS VL: DIQMTQSPSSLSASVGDRVTITCRASESVDNYGISFMNWFQQKPGKAPKLLIYAASNQGSGVPSRFSGSGSGTDFTLTISSLQPDDFATYYCQQSKEVPWTFGQGTKVEIK | Mean % WT Binding (human CD33 Q24N): 35.3 % WT binding; Mean % WT Binding (human CD33 Q24H): 7.1 % WT binding; Mean % WT Binding (human CD33 Q24E): 0.8 % WT binding; Mean % WT Binding (human CD33 Q24R): 74.6 % WT binding; Mean % WT Binding (human CD33 V25S): 104 % WT binding; Mean % WT Binding (human CD33 T42K): 103 % WT binding; Mean % WT Binding (human CD33 F44P): 2 % WT binding; Mean % WT Binding (human CD33 F44Q): 105 % WT binding; Mean % WT Binding (human CD33 F44H): 91.2 % WT binding; Mean % WT Binding (human CD33 F44E): 33.3 % WT binding; Mean % WT Binding (human CD33 F44T): 83.3 % WT binding; Mean % WT Binding (human CD33 D18N): 71.5 % WT binding; Mean % WT Binding (human CD33 P46I): 1.8 % WT binding; Mean % WT Binding (human CD33 P46F): 0.2 % WT binding; Mean % WT Binding (human CD33 P46D): 0.6 % WT binding; Mean % WT Binding (human CD33 I47G): 107 % WT binding; Mean % WT Binding (human CD33 I47T): 72.4 % WT binding
115 | 88.3 | 105 | 124 | 116 | 95.8 | 34.7 | 109 | 117 | 120 | 86.8 | 117 | 113 | 105 | 107 | 107 | 115 | 107 | 108 | 102 | Refmab #2 (antibody, human IgG1, V domains shown, Tested in IgG format; human IgG1 Fc silent (PG-LALA)) VH: QVQLVQSGAEVKKPGSSVKVSCKASGGTFSDYAISWVRQAPGQGLEWMGRIIPILGVADYAQKFQGRVTITADKSTRTAYMELSSLRSEDTAVYYCARNWADAFDIWGQGTMVTVSS VL: DIQLTQSPSSLSASVGDRVTITCRASQGISSVLAWYQQKPGKAPKLLIYDASSLESGVPSRFSGSGSGTDFTLTISSLQPEDFATYYCQQFDSSITFGQGTKLEIK | Mean % WT Binding (human CD33 Q24N): 117 % WT binding; Mean % WT Binding (human CD33 Q24H): 101 % WT binding; Mean % WT Binding (human CD33 Q24E): 63.7 % WT binding; Mean % WT Binding (human CD33 Q24R): 96.8 % WT binding; Mean % WT Binding (human CD33 V25S): 110 % WT binding; Mean % WT Binding (human CD33 T42K): 95.5 % WT binding; Mean % WT Binding (human CD33 F44P): 0.4 % WT binding; Mean % WT Binding (human CD33 F44Q): 0.5 % WT binding; Mean % WT Binding (human CD33 F44H): 0.4 % WT binding; Mean % WT Binding (human CD33 F44E): 1.7 % WT binding; Mean % WT Binding (human CD33 F44T): 0.8 % WT binding; Mean % WT Binding (human CD33 D18N): 59.2 % WT binding; Mean % WT Binding (human CD33 P46I): 55.8 % WT binding; Mean % WT Binding (human CD33 P46F): 80.9 % WT binding; Mean % WT Binding (human CD33 P46D): 100 % WT binding; Mean % WT Binding (human CD33 I47G): 3.7 % WT binding; Mean % WT Binding (human CD33 I47T): 1.8 % WT binding
